Data from article PMC13425845.

Key:
[1] = target: human γD-crystallin C18T/C32A/C41A/C78A (human); experiment: intact protein electrospray mass spectrometry; Bruker Impact II QTOF electrospray mass spectrometer with HPLC; isotopically averaged mass of monomer and dimer samples
[2] = target: human γD-crystallin C18S/C32S/C41S/C78S (human); experiment: as above

human γD-crystallin C18T/C32A/C41A/C78A (natural protein)
stoichiometry N [1]: 2

human γD-crystallin C18S/C32S/C41S/C78S (natural protein)
stoichiometry N [2]: 2
